Reference: publication PMC4281067, “New Insight into Secreted Ribonuclease Structure: Binase Is a Natural Dimer” (PLoS ONE, 2014)

Molecular target: the molecule itself
Test: SDS-PAGE (SDS-resistant dimer band) with LC-MS/MS of the excised bands; lyophilised pure binase on 15% SDS-PAGE with 0.1% SDS; 12 and 25 kDa bands, both detected by anti-binase immunoblot and in-gel RNase activity; 25 kDa band not fully lost with 2% SDS or 4-8 M urea; bands trypsin-digested and identified by LC-MS/MS

B1: binase (guanyl-preferring RNase secreted by Bacillus pumilus), wild-type enzyme designated as "native" binase (enzyme, Bacillus pumilus (former B. intermedius), UniProt P00649 54-162, looked up)
chain: AVINTFDGVADYLIRYKRLPDNYITKSQASALGWVASKGNLAEVAPGKSIGGDVFSNREGRLPSASGRTWREADINYVSGFRNADRLVYSSDWLIYKTTDHYATFTRIR
notes: binase, secreted RNase of Bacillus pumilus (former B. intermedius); single chain of 109 amino acids, molecular weight 12.3 kDa; secreted enzyme isolated from the medium; binase has no sulfhydryl groups; also called B. intermedius RNase; wild-type binase; source: isolated from the medium of B. pumilus 7P, purified (MonoS), lyophilised; also unpurified B. pumilus culture fluid
  stoichiometry N: 2
